Data published in US20250388646A1.

Assays:
Assay in all cases: cell-based or functional assay
[1] = target: dominant negative Fas receptor (dnFAS)
[2] = target: FAS-(CD27) Fas redirector
FAS-(41BB) construct = FAS-(41BB) construct (UniProt Q07011)
[3] = target: FAS-(MyD88-CD40) Fas redirector

Measured: percentage of viable cells after 24 hours of exposure to CH11

Sequence of FAS-(CD27) Fas redirector (chain, as listed by the source): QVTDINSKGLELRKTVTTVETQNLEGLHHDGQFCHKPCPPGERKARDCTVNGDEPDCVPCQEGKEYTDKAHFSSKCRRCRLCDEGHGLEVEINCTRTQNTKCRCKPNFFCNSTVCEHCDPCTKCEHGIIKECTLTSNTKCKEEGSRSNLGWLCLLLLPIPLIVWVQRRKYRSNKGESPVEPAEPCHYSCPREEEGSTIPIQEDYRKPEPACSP
Sequence of FAS-(MyD88-CD40) Fas redirector (chain, as listed by the source): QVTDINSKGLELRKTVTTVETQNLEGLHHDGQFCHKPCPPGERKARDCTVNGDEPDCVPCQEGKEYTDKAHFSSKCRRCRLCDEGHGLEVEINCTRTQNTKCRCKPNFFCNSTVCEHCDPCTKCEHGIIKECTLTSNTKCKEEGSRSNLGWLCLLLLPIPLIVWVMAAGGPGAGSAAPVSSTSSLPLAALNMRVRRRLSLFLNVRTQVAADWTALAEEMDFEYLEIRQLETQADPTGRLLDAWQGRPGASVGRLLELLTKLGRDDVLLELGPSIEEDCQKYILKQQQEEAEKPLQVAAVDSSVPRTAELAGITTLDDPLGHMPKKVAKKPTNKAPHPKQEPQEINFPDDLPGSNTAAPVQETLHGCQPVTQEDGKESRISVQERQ
Sequence of UniProt Q07011 (Q07011 other isoform, or with tags, fused parts or gaps): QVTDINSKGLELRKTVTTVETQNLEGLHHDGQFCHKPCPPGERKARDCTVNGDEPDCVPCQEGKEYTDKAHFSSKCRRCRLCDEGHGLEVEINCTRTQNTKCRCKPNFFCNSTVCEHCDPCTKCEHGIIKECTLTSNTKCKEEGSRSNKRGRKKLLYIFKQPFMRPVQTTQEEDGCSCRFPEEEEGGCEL

CH11 (Sigma-Aldrich), a Fas agonist (antibody)
> 60%: all assays above
